Unique peptide number (unique peptides) data for 42 substances are collected here from US20250270584A1, “Gene editing to provide insect resistance in crops” (The Regents of the University of California, priority 2022, published 2025).

This experiment deals with GLR3.3-3Flag (Arabidopsis thaliana) (UniProt Q9C8E7). Put plainly: IP-MS, anti-Flag IP of GLR3.3-3Flag from leaves of transgenic plants; co-enrichment, may be indirect.
Chain of GLR3.3-3Flag (Arabidopsis thaliana) (Q9C8E7 24-933): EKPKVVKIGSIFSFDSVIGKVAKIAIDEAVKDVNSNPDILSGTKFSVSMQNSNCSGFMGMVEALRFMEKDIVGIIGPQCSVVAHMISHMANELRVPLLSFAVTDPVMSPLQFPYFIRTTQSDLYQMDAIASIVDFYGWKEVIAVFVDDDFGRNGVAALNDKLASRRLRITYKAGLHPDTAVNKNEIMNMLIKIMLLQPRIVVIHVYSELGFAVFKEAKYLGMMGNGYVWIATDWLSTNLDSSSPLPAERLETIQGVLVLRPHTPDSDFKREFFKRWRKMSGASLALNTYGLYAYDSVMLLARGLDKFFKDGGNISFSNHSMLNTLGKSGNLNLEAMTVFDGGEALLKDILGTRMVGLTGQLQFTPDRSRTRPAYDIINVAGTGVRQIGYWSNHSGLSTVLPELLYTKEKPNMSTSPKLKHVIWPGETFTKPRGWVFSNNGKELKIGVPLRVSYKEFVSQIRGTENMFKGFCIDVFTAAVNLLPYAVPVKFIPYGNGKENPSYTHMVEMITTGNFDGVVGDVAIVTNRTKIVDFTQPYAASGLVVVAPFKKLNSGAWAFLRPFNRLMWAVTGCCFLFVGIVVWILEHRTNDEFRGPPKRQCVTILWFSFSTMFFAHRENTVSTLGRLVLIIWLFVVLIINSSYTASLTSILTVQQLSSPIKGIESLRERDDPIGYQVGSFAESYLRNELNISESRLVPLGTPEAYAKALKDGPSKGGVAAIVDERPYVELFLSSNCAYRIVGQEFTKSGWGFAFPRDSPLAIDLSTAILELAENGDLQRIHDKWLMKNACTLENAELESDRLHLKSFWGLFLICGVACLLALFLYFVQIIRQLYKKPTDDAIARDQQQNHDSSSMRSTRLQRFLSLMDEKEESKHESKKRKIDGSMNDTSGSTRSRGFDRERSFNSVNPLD

Turning to “AHA1 (plasma membrane proton ATPase 1) (from UniProt P20649 2-949) (enzyme)”, the unique peptide number (unique peptides) turned out to be 23.

In the case of “AHA2 (plasma membrane proton ATPase 2) (from UniProt P19456 2-948) (enzyme)”, the unique peptide number (unique peptides) was found to be 17.

“AMY3 (plastid-localized α-amylase) (from UniProt Q94A41 56-887) (enzyme)” yielded a unique peptide number (unique peptides) of 8.

The substance “ATMS1 (cobalamin-independent synthase family protein) (from UniProt O50008 1-765) (enzyme)” yielded a unique peptide number (unique peptides) of 14.

The substance “CAM3 (calmodulin) (from UniProt P0DH98 1-149)” registered a unique peptide number (unique peptides) of 7.

In the case of “CAM5 (calmodulin) (from UniProt Q682T9 1-149)”, the unique peptide number (unique peptides) was 7.

On to “CAM6 (calmodulin) (from UniProt Q03509 1-149)”, for which the unique peptide number (unique peptides) amounted to 4.

“CAT2 (catalase) (from UniProt P25819 1-492) (enzyme)” returned a unique peptide number (unique peptides) of 6.

“CAT3 (catalase) (from UniProt Q42547 1-492) (enzyme)” showed a unique peptide number (unique peptides) of 6.

Take “CLPC1 (Clp protease ATP-binding subunit homologue) (from UniProt Q9FI56 39-929)”: the unique peptide number (unique peptides) is 21.

The substance “CaM7 (calmodulin 7) (from UniProt P59220 1-149)” had a unique peptide number (unique peptides) of 11.

As for “EDD1 (glycine-tRNA ligase) (from UniProt Q8L785 51-1067) (enzyme)”, the unique peptide number (unique peptides) was 4.

In turn, “EIF3A (a subunit of eukaryotic initiation factor 3 (eIF3)) (from UniProt Q9LD55 1-987)” had a unique peptide number (unique peptides) of 4.

Regarding “FTIP1 (multiple C2 domain and transmembrane region protein 1) (from UniProt Q9FL59 1-794)”, the unique peptide number (unique peptides) worked out at 21.

As for “GAPB (glyceraldehyde-3-phosphate dehydrogenase B subunit) (from UniProt P25857 81-447) (enzyme)”, the unique peptide number (unique peptides) amounted to 4.

As for “GLDP1 (glycine decarboxylase P-protein 1) (from UniProt Q94B78 68-1037) (enzyme)”, the unique peptide number (unique peptides) is 15.

In turn, “GLDP2 (P-subunit of glycine decarboxylase) (from UniProt O80988 73-1044) (enzyme)” registered a unique peptide number (unique peptides) of 11.

On to “GLR2.6 (from UniProt Q9LFN8 32-967) (receptor)”, for which the unique peptide number (unique peptides) is 12.

As for “GLR3.2 (from UniProt Q93YT1 23-912) (receptor)”, the unique peptide number (unique peptides) turned out to be 4.

“GLR3.5 (from UniProt Q9SW97 30-953) (receptor)” came in with a unique peptide number (unique peptides) of 9.

“GLU1 (glutamate synthase 1) (from UniProt Q9ZNZ7 106-1622) (enzyme)” yielded a unique peptide number (unique peptides) of 57.

“GLU2 (glutamate synthase 2) (from UniProt Q9T0P4 108-1629) (enzyme)” showed a unique peptide number (unique peptides) of 13.

“HSP70-1 (member of heat shock protein 70 family) (from UniProt P22953 2-651)” had a unique peptide number (unique peptides) of 15.

For “HSP70-2 (member of heat shock protein 70 family) (from UniProt P22954 1-653)”, the unique peptide number (unique peptides) was determined as 12.

As for “KEA1 (K^+ efflux antiporter 1) (from UniProt Q9ZTZ7 50-1193)”, the unique peptide number (unique peptides) amounted to 5.

Substance “LOS1 (translation elongation factor 2-like protein) (from UniProt Q9ASR1 1-843)” yielded a unique peptide number (unique peptides) of 21.

Substance “LOX2 (chloroplast lipoxygenase 2) (from UniProt P38418 57-896) (enzyme)” returned a unique peptide number (unique peptides) of 9.

“NIT1 (nitrilase isoenzyme family) (from UniProt P32961 2-346)”: the unique peptide number (unique peptides) stood at 17.

With “PIP2; 1 (plasma membrane intrinsic protein 2A) (from UniProt P43286 1-287)”, the unique peptide number (unique peptides) amounted to 7.

The substance “PIP2; 4 (plasma membrane intrinsic protein 2; 4) (from UniProt Q9FF53 1-291)” yielded a unique peptide number (unique peptides) of 5.

As for “PIP2; 7 (plasma membrane intrinsic protein 3) (from UniProt P93004 1-280)”, the unique peptide number (unique peptides) turned out to be 7.

Take “PPC2 (phosphoenolpyruvate carboxylase protein 2) (from UniProt Q5GM68 1-963) (enzyme)”: the unique peptide number (unique peptides) was found to be 12.

“PWD (chloroplastidic phosphoglucan, water dikinase) (from UniProt Q6ZY51 55-1196) (enzyme)” returned a unique peptide number (unique peptides) of 43.

For the substance “RCA (rubisco activase) (from UniProt P10896 59-474) (enzyme)”, the unique peptide number (unique peptides) was 12.

Substance “TGG1 (member of glycoside hydrolase family 1) (from UniProt P37702 20-541) (enzyme)” came in with a unique peptide number (unique peptides) of 6.

“TIC110 (translocon at the chloroplast inner envelope) (from UniProt Q8LPR9 52-1016)” displayed a unique peptide number (unique peptides) of 16.

The substance “TKL1 (transketolase involved in carbon fixation) (from UniProt Q8RWV0 67-741) (enzyme)” displayed a unique peptide number (unique peptides) of 17.

The substance “TPP2 (tripeptidyl peptidase II) (from UniProt F4JVN6 1-1380) (enzyme)” came in with a unique peptide number (unique peptides) of 42.

“UBA1 (ubiquitin-activating enzyme (E1)) (from UniProt P93028 1-1080)” showed a unique peptide number (unique peptides) of 7.

For “VEN3 (carbamoyl phosphate synthetase (CPS) large subunit) (from UniProt Q42601 63-1187) (enzyme)”, the unique peptide number (unique peptides) is 12.

Consider “coatomer, alpha subunit (from UniProt Q9SJT9 1-1218)”, for which the unique peptide number (unique peptides) was 10.

As to “tRNA synthetase class I (I, L, M and V) family protein (from UniProt F4JLM5 1-1190) (enzyme)”, the unique peptide number (unique peptides) is 62.
